We go through two molecules from paper PMC7435230, “Selection of a Full Agonist Combinatorial Antibody that Rescues Leptin Deficiency In Vivo” (Advanced Science, 2020).

Test [1] has as its target T1, extracellular domain of human leptin receptor with C-terminal 6xHis tag (human, UniProt P48357).
T1 construct: leptin receptor (LepR), human, extracellular domain; also called hLepR-ECD; hLepR-ECD-His; source: HEK293F, purified from supernatant (HisTrap FF Crude); not shown: 6xHis, C-terminal, kept
As to the kind of experiment: SPR; Biacore T200; LepR-ECD with His tag immobilised on CM5 chip by amine coupling; leptin-Fc and scFv-Fc antibodies in PBS pH 7.4, 1:2 serial dilutions, five concentrations, as analytes; 1:1 binding model. The conditions noted are these: both partners purified.

The target of test [2] is T2, mLepR in mouse brain tissue sections (paraventricular nucleus of the hypothalamus) (Mus musculus, C57BL/6 (wild type, …, UniProt P48356)).
T2 construct: leptin receptor (LepR), mouse, endogenous in hypothalamus; Fixed tissue sections; also called LepR in tissue; source: endogenous, brain sections of wild type, ob/ob and db/db C57BL/6 mice
T2 sequence (P48356 22-839): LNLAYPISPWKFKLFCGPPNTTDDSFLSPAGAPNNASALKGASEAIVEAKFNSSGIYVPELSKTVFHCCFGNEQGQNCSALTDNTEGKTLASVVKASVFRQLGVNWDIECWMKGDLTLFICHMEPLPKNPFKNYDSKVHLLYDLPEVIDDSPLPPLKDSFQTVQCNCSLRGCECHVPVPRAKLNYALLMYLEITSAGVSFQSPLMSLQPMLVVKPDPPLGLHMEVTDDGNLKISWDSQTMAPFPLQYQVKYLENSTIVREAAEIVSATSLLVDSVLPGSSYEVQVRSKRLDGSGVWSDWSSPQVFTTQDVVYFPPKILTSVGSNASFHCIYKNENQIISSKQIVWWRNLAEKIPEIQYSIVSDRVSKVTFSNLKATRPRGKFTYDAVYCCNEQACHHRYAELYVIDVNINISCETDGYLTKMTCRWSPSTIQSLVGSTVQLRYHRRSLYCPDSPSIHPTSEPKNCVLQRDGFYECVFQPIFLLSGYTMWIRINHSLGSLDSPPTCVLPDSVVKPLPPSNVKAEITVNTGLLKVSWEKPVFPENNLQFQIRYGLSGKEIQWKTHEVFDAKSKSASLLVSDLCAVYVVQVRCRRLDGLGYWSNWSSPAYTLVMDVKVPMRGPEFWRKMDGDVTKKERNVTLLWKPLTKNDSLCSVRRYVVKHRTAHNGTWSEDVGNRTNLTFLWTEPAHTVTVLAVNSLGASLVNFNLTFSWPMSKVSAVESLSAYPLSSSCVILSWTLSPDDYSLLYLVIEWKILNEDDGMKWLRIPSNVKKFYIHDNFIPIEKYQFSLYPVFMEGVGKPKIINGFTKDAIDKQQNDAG
As to the kind of experiment: immunostaining of cells or tissue; 30 um brain sections of wild type, ob/ob and db/db mice, fixed in 4% PFA; staining as for cells; paraventricular nucleus of the hypothalamus. The conditions noted are these: one partner purified.

The target in test [3] is human leptin receptor tagged with eYFP, on HEK293 cells (Homo sapiens, UniProt P48357). The experiment in a line: cell-based or functional assay.
For test [4], the target named is T3, extracellular domain of human leptin receptor with C-terminal human-Fc tag (human, UniProt P48357 22-839).
T3 chain: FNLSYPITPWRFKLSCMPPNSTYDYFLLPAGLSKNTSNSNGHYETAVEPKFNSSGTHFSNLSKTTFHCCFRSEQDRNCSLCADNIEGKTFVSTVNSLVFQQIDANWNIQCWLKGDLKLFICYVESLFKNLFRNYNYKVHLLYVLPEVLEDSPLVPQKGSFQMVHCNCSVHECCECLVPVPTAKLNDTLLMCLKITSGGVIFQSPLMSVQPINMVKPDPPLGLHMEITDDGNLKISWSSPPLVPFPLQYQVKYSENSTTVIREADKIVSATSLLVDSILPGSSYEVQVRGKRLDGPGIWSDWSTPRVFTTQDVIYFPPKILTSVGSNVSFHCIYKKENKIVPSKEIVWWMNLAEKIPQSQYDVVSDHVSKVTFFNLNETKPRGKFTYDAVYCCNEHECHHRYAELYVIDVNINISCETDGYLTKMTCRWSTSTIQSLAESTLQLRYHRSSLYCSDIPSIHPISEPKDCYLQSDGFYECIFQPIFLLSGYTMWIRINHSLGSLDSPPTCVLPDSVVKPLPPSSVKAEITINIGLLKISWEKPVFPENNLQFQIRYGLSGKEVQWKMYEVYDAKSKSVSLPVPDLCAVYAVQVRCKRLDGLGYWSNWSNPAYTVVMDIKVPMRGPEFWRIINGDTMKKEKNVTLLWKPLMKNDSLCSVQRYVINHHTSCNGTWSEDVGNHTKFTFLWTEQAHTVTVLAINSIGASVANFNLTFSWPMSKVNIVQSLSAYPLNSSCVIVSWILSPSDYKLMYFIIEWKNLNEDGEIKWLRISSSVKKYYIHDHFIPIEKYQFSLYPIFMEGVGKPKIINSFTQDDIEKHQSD
The experiment in a line: ELISA; competition with coated leptin, 20 nM hLepR-ECD-Fc.

The target in test [5] is T4, mouse leptin receptor tagged with eYFP, on HEK293 cells (Mus musculus, UniProt P48356).
T4 construct: leptin receptor (LepR), mouse; also called mLepR-eYFP; mLepR; source: HEK293, transiently transfected, on cells (fixed); not shown: eYFP, C-terminal, kept
T4 sequence (P48356 22-1162): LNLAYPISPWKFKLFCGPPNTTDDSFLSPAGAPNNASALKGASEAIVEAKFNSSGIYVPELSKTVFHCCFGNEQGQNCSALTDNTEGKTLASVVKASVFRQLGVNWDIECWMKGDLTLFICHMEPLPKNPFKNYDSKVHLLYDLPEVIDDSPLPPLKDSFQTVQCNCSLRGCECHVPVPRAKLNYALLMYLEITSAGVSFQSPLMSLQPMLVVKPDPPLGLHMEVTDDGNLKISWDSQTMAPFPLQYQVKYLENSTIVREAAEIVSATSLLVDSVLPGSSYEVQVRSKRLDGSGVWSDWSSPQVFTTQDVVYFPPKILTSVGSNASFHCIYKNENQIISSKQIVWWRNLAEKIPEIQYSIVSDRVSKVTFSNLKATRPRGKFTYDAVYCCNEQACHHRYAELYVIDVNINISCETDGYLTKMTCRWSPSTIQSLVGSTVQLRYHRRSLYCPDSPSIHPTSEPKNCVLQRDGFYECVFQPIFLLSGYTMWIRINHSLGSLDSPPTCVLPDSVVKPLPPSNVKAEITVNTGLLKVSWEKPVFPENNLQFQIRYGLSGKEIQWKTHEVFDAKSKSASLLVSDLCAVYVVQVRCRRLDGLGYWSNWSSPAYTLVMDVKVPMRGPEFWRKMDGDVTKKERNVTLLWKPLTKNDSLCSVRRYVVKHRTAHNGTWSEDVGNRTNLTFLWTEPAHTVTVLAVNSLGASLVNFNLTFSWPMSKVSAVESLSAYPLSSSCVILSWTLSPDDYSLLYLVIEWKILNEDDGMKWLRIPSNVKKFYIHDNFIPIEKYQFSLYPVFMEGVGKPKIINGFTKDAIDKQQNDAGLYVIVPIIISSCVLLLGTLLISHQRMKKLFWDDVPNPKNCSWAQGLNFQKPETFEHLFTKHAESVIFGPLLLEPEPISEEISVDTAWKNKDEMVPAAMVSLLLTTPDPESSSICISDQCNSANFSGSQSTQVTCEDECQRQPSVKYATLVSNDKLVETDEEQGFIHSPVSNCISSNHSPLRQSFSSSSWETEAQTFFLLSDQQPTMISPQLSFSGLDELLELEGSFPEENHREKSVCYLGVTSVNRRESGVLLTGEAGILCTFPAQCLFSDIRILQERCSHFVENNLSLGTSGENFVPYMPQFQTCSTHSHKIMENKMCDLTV
As to the kind of experiment: immunostaining of cells or tissue; transiently transfected HEK293 cells expressing LepR-eYFP, fixed in 4% PFA; primary antibodies 5 ug/mL at 4 C overnight; Alexa Fluor 555 goat anti-human IgG. The conditions noted are these: one partner purified.

Test [6] concerns the target T5, extracellular domain of mouse leptin receptor with C-terminal 6xHis tag (mouse, UniProt P48356).
T5 construct: leptin receptor (LepR), mouse, extracellular domain; also called mLepR-ECD; mLepR-ECD-His; source: HEK293F, purified from supernatant (HisTrap FF Crude); not shown: 6xHis, C-terminal, kept
As to the kind of experiment: SPR; Biacore T200; LepR-ECD with His tag immobilised on CM5 chip by amine coupling; leptin-Fc and scFv-Fc antibodies in PBS pH 7.4, 1:2 serial dilutions, five concentrations, as analytes; 1:1 binding model. The conditions noted are these: both partners purified.

T5 sequence (P48356 22-839): as the sequence (P48356 22-839) above

B1: single-chain combinatorial antibody Ab06 (scFv-Fc) (scFv, V domains shown)
VH: QVQLVESGGGVVQPGRSLRLSCAASGFTFSSYGMHWVRQAPGKGLEWVAVISYDGSNKYYADSVKGRFTISRDNSKNTLYLQMNSLRAEDTAVYYCAKSLRNSFDYWGQGTLVTVSS
VL: EIVLTQSPGTLSLSPGERATLSCRASQSVSSNYLAWYQQKPGQAPRLLIYGASSRPTGIPDRFSGSGSGTDFTLTISRLEPEDFAVYYCQQYAASPLTFGGGTKLEIK
notes: identical to Ab11 except four residues in CDR3H; source: HEK293F, purified from supernatant (HiTrap Protein A)
In test [1], B1 gave a Kd of 7.5 nM, a dissociation rate constant (koff) of 0.052 s⁻¹ and a kon of 6.9e+06 M⁻¹ s⁻¹. Also, the binding result in test [2] was “no binding”. In test [3], the “EC50, hLepR-luciferase (SIE luciferase reporter of STAT3 phosphorylation, HEK293)” value was found to be 3.2 nM. In addition, the 50% inhibitory concentration (IC50) in test [4] worked out at 40 nM. For the same molecule, the binding result in test [5] is on record as “no binding (tested: 5 ug/mL)”.

B2: single-chain combinatorial antibody Ab11 (scFv-Fc) (scFv, V domains shown)
VH: QVQLVESGGGVVQPGRSLRLSCAASGFTFSSYGMHWVRQAPGKGLEWVAVISYDGSNKYYADSVKGRFTISRDNSKNTLYLQMNSLRAEDTAVYYCAKGYENYFDYWGQGTLVTVSS
VL: EIVLTQSPGTLSLSPGERATLSCRASQSVSSNYLAWYQQKPGQAPRLLIYGASSRPTGIPDRFSGSGSGTDFTLTISRLEPEDFAVYYCQQYAASPLTFGGGTKLEIK
notes: CDR3H holds the motif ENYF; source: HEK293F, purified from supernatant (HiTrap Protein A)
In turn, B2 came in with a Kd in test [6] of 200 nM.
